T1: GIP receptor (UniProt P48546 22-466)
T1 sequence (looked up): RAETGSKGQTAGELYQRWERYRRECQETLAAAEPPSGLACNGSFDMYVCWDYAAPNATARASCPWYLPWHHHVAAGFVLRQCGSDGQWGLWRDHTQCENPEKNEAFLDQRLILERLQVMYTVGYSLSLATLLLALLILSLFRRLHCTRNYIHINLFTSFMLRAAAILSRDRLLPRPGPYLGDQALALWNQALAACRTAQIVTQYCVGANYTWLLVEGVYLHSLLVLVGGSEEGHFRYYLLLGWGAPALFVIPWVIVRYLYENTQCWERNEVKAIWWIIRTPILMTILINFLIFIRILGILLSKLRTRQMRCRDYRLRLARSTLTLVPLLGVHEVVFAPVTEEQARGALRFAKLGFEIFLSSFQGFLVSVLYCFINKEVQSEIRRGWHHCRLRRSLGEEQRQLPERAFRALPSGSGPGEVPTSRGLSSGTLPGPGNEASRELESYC

B1: mt-128 (peptide)
peptide: HSQGTFTSDYSKYLDEIHQKDFIAWLMNGGPSSGAPPPS-NH2
modifications: lactam 16-20; N-terminus assumed
SMILES: CC[C@H](C)[C@H](NC(=O)[C@H](Cc1ccccc1)NC(=O)[C@H](CC(=O)O)NC(=O)[C@@H]1CCCCNC(=O)CC[C@H](NC(=O)[C@H](CC(=O)O)NC(=O)[C@H](CC(C)C)NC(=O)[C@H](Cc2ccc(O)cc2)NC(=O)[C@H](CCCCN)NC(=O)[C@H](CO)NC(=O)[C@H](Cc2ccc(O)cc2)NC(=O)[C@H](CC(=O)O)NC(=O)[C@H](CO)NC(=O)[C@@H](NC(=O)[C@H](Cc2ccccc2)NC(=O)[C@@H](NC(=O)CNC(=O)[C@H](CCC(N)=O)NC(=O)[C@H](CO)NC(=O)[C@@H](N)Cc2c[nH]cn2)[C@@H](C)O)[C@@H](C)O)C(=O)N[C@@H]([C@@H](C)CC)C(=O)N[C@@H](Cc2c[nH]cn2)C(=O)N[C@@H](CCC(N)=O)C(=O)N1)C(=O)N[C@@H](C)C(=O)N[C@@H](Cc1c[nH]c2ccccc12)C(=O)N[C@@H](CC(C)C)C(=O)N[C@@H](CCSC)C(=O)N[C@@H](CC(N)=O)C(=O)NCC(=O)NCC(=O)N1CCC[C@H]1C(=O)N[C@@H](CO)C(=O)N[C@@H](CO)C(=O)NCC(=O)N[C@@H](C)C(=O)N1CCC[C@H]1C(=O)N1CCC[C@H]1C(=O)N1CCC[C@H]1C(=O)N[C@@H](CO)C(N)=O
B2: mt-124 (peptide)
peptide: HSQGTFTSDYSIYMDEIHQKDFVNWLLAQ-NH2
modifications: lactam 16-20; N-terminus assumed
SMILES: CC[C@H](C)[C@H](NC(=O)[C@H](CO)NC(=O)[C@H](Cc1ccc(O)cc1)NC(=O)[C@H](CC(=O)O)NC(=O)[C@H](CO)NC(=O)[C@@H](NC(=O)[C@H](Cc1ccccc1)NC(=O)[C@@H](NC(=O)CNC(=O)[C@H](CCC(N)=O)NC(=O)[C@H](CO)NC(=O)[C@@H](N)Cc1c[nH]cn1)[C@@H](C)O)[C@@H](C)O)C(=O)N[C@@H](Cc1ccc(O)cc1)C(=O)N[C@@H](CCSC)C(=O)N[C@@H](CC(=O)O)C(=O)N[C@H]1CCC(=O)NCCCC[C@@H](C(=O)N[C@@H](CC(=O)O)C(=O)N[C@@H](Cc2ccccc2)C(=O)N[C@H](C(=O)N[C@@H](CC(N)=O)C(=O)N[C@@H](Cc2c[nH]c3ccccc23)C(=O)N[C@@H](CC(C)C)C(=O)N[C@@H](CC(C)C)C(=O)N[C@@H](C)C(=O)N[C@@H](CCC(N)=O)C(N)=O)C(C)C)NC(=O)[C@H](CCC(N)=O)NC(=O)[C@H](Cc2c[nH]cn2)NC(=O)[C@H]([C@@H](C)CC)NC1=O
B3: mt-115 (peptide)
peptide: HSQGTFTSDYSKYLDEIHQKDFVNWLLAGGPSSGAPPPS-NH2
modifications: lactam 16-20; N-terminus assumed
SMILES: CC[C@H](C)[C@@H]1NC(=O)[C@@H](NC(=O)[C@H](CC(=O)O)NC(=O)[C@H](CC(C)C)NC(=O)[C@H](Cc2ccc(O)cc2)NC(=O)[C@H](CCCCN)NC(=O)[C@H](CO)NC(=O)[C@H](Cc2ccc(O)cc2)NC(=O)[C@H](CC(=O)O)NC(=O)[C@H](CO)NC(=O)[C@@H](NC(=O)[C@H](Cc2ccccc2)NC(=O)[C@@H](NC(=O)CNC(=O)[C@H](CCC(N)=O)NC(=O)[C@H](CO)NC(=O)[C@@H](N)Cc2c[nH]cn2)[C@@H](C)O)[C@@H](C)O)CCC(=O)NCCCC[C@@H](C(=O)N[C@@H](CC(=O)O)C(=O)N[C@@H](Cc2ccccc2)C(=O)N[C@H](C(=O)N[C@@H](CC(N)=O)C(=O)N[C@@H](Cc2c[nH]c3ccccc23)C(=O)N[C@@H](CC(C)C)C(=O)N[C@@H](CC(C)C)C(=O)N[C@@H](C)C(=O)NCC(=O)NCC(=O)N2CCC[C@H]2C(=O)N[C@@H](CO)C(=O)N[C@@H](CO)C(=O)NCC(=O)N[C@@H](C)C(=O)N2CCC[C@H]2C(=O)N2CCC[C@H]2C(=O)N2CCC[C@H]2C(=O)N[C@@H](CO)C(N)=O)C(C)C)NC(=O)[C@H](CCC(N)=O)NC(=O)[C@H](Cc2c[nH]cn2)NC1=O
B4: mt-111 (peptide)
peptide: HSQGTFTSDYSKYLDEIHQKDFVNWLLAQ-NH2
modifications: lactam 16-20; N-terminus assumed
SMILES: CC[C@H](C)[C@@H]1NC(=O)[C@@H](NC(=O)[C@H](CC(=O)O)NC(=O)[C@H](CC(C)C)NC(=O)[C@H](Cc2ccc(O)cc2)NC(=O)[C@H](CCCCN)NC(=O)[C@H](CO)NC(=O)[C@H](Cc2ccc(O)cc2)NC(=O)[C@H](CC(=O)O)NC(=O)[C@H](CO)NC(=O)[C@@H](NC(=O)[C@H](Cc2ccccc2)NC(=O)[C@@H](NC(=O)CNC(=O)[C@H](CCC(N)=O)NC(=O)[C@H](CO)NC(=O)[C@@H](N)Cc2c[nH]cn2)[C@@H](C)O)[C@@H](C)O)CCC(=O)NCCCC[C@@H](C(=O)N[C@@H](CC(=O)O)C(=O)N[C@@H](Cc2ccccc2)C(=O)N[C@H](C(=O)N[C@@H](CC(N)=O)C(=O)N[C@@H](Cc2c[nH]c3ccccc23)C(=O)N[C@@H](CC(C)C)C(=O)N[C@@H](CC(C)C)C(=O)N[C@@H](C)C(=O)N[C@@H](CCC(N)=O)C(N)=O)C(C)C)NC(=O)[C@H](CCC(N)=O)NC(=O)[C@H](Cc2c[nH]cn2)NC1=O
B5: mt-125 (peptide)
peptide: YSQGTFTSDYSIYMDEIHQKDFVNWLLAQ-NH2
modifications: lactam 16-20; N-terminus assumed
SMILES: CC[C@H](C)[C@H](NC(=O)[C@H](CO)NC(=O)[C@H](Cc1ccc(O)cc1)NC(=O)[C@H](CC(=O)O)NC(=O)[C@H](CO)NC(=O)[C@@H](NC(=O)[C@H](Cc1ccccc1)NC(=O)[C@@H](NC(=O)CNC(=O)[C@H](CCC(N)=O)NC(=O)[C@H](CO)NC(=O)[C@@H](N)Cc1ccc(O)cc1)[C@@H](C)O)[C@@H](C)O)C(=O)N[C@@H](Cc1ccc(O)cc1)C(=O)N[C@@H](CCSC)C(=O)N[C@@H](CC(=O)O)C(=O)N[C@H]1CCC(=O)NCCCC[C@@H](C(=O)N[C@@H](CC(=O)O)C(=O)N[C@@H](Cc2ccccc2)C(=O)N[C@H](C(=O)N[C@@H](CC(N)=O)C(=O)N[C@@H](Cc2c[nH]c3ccccc23)C(=O)N[C@@H](CC(C)C)C(=O)N[C@@H](CC(C)C)C(=O)N[C@@H](C)C(=O)N[C@@H](CCC(N)=O)C(N)=O)C(C)C)NC(=O)[C@H](CCC(N)=O)NC(=O)[C@H](Cc2c[nH]cn2)NC(=O)[C@H]([C@@H](C)CC)NC1=O
B6: mt-120 (peptide)
peptide: YSQGTFTSDYSKYLDEQAAKEFIAWLMNGGPSSGAPPPS-NH2
modifications: lactam 16-20; N-terminus assumed
SMILES: CC[C@H](C)[C@H](NC(=O)[C@H](Cc1ccccc1)NC(=O)[C@H](CCC(=O)O)NC(=O)[C@@H]1CCCCNC(=O)CC[C@H](NC(=O)[C@H](CC(=O)O)NC(=O)[C@H](CC(C)C)NC(=O)[C@H](Cc2ccc(O)cc2)NC(=O)[C@H](CCCCN)NC(=O)[C@H](CO)NC(=O)[C@H](Cc2ccc(O)cc2)NC(=O)[C@H](CC(=O)O)NC(=O)[C@H](CO)NC(=O)[C@@H](NC(=O)[C@H](Cc2ccccc2)NC(=O)[C@@H](NC(=O)CNC(=O)[C@H](CCC(N)=O)NC(=O)[C@H](CO)NC(=O)[C@@H](N)Cc2ccc(O)cc2)[C@@H](C)O)[C@@H](C)O)C(=O)N[C@@H](CCC(N)=O)C(=O)N[C@@H](C)C(=O)N[C@@H](C)C(=O)N1)C(=O)N[C@@H](C)C(=O)N[C@@H](Cc1c[nH]c2ccccc12)C(=O)N[C@@H](CC(C)C)C(=O)N[C@@H](CCSC)C(=O)N[C@@H](CC(N)=O)C(=O)NCC(=O)NCC(=O)N1CCC[C@H]1C(=O)N[C@@H](CO)C(=O)N[C@@H](CO)C(=O)NCC(=O)N[C@@H](C)C(=O)N1CCC[C@H]1C(=O)N1CCC[C@H]1C(=O)N1CCC[C@H]1C(=O)N[C@@H](CO)C(N)=O

Bridges are numbered along the chain shown (N, C = ends). Where no end group is shown, it is not given here.

What is called EC50 is the concentration giving half of the maximal effect. Read a low EC50 as higher potency in that assay.

Sequence of glucagon receptor (P47871 26-477 limits assumed): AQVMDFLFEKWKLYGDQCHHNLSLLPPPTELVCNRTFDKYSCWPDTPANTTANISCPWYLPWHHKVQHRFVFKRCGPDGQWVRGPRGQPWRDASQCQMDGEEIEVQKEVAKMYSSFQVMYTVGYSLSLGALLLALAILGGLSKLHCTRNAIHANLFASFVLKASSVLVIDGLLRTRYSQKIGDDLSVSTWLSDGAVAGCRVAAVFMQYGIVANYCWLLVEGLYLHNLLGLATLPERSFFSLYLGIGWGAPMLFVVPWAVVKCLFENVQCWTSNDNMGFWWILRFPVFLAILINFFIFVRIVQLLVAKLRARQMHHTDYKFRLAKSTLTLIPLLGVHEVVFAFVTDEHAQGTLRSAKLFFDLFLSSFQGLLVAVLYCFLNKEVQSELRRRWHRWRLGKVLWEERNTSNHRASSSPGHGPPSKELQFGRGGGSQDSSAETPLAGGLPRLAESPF

The target of the first test is GLP-1 receptor (UniProt P43220 24-463, limits assumed). In words: cell-based or functional assay.
On to B1, for which the “EC50” value worked out at 0.12 nM and the relative activity was determined as 33.3%.
For B2 the same measures were 0.04 nM and 100%.
On to YSQGTFTSDYSKYLDEIHQKEFVNWLLAQ-NH2 [mt-118], for which the “EC50” value is 1.28 nM and the relative activity was found to be 2.34%.
For YSQGTFTSDYSKYLDEIHQKDFVNWLLAGGPSSGAPPPS-NH2 [mt-116] the same measures were 3.8 nM and 1.07%.
For B3 the same measures were 0.15 nM and 20%.
Take B4: the “EC50” value was determined as 0.66 nM and the relative activity came to 10.6%.
As to B5, a half-maximal response (EC50) required 1.26 nM and the relative activity worked out at 3.17%.
For B6 the same measures were 0.399 nM and 13.4%.

For another test, the target named is T1, GIP receptor. Description: cell-based or functional assay.
Take B1: it took 14.6 nM to reach a half-maximal effect (EC50) and the relative activity was 0.42%.
For B2 the same measures were 5.79 nM and 0.95%.
The matching figures for YSQGTFTSDYSKYLDEIHQKEFVNWLLAQ-NH2 [mt-118]: 0.736 nM and 6.39%.
For the molecule YSQGTFTSDYSKYLDEIHQKDFVNWLLAGGPSSGAPPPS-NH2 [mt-116], a half-maximal response (EC50) required 0.617 nM and the relative activity stood at 7.62%.
B3: the half-maximal effective concentration (EC50) was 3.58 nM and the relative activity is 1.31%.
B4: the response was half-maximal at 6.26 nM (EC50) and the relative activity came to 0.78%.
For B5 the same measures were 0.275 nM and 19.6%.
Consider B6, for which the response was half-maximal at 2.62 nM (EC50) and the relative activity turned out to be 1.81%.

A further test concerns the target glucagon receptor (UniProt P47871 26-477, limits assumed). In words: cell-based or functional assay.
As to B1, the “EC50” value was 0.773 nM and the relative activity was determined as 11.1%.
The matching figures for B2: 2.43 nM and 8.64%.
The matching figures for YSQGTFTSDYSKYLDEIHQKEFVNWLLAQ-NH2 [mt-118]: 0.04 nM and 125%.
As to YSQGTFTSDYSKYLDEIHQKDFVNWLLAGGPSSGAPPPS-NH2 [mt-116], the “EC50” value stood at 0.787 nM and the relative activity came out at 18.7%.
Regarding B3, the “EC50” value stood at 0.44 nM and the relative activity was 11.4%.
As for B4, the “EC50” value stood at 0.27 nM and the relative activity was 85.2%.
Take B5: the “EC50” value was 5.74 nM and the relative activity was found to be 9.06%.
As to B6, the midpoint of the response, the EC50, lay at 0.074 nM and the relative activity stood at 259%.

For the origin of these results see patent US20110166062A1 (INDIANA UNIVERSITY RESEARCH AND TECHNOLOGY, published 2011).
